From the supplement of paper PMC10126150
± gives the standard deviation of the averaged measurements.

The sequences below were run on ATP (assay: switch fluorescence ratio, 500 uM ATP over buffer (Cy3 cluster intensity, sum of 5 cycles each) (fold (ratio)); higher = stronger signal-on switching upon ATP binding; sequences stand for … in TCGTCGGCAGCGTCAGATGTGTATAAGAGACAGTTTTTTTTTTTTTTTTTTTTTTTTT…TC). Conditions: aptamer strand: ATP DNA aptamer (quencher-CACCTGGGGGAGTATTGCGGAGGAAGG + anchor), 100 nM annealed; ATP concentration: 500 uM.
Summary of the method: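 Five buffer/ATP imaging cycles were run on Cy3-labelled switching-strand clusters on a modified Illumina MiSeq flow-cell, with NaOH stripping and re-annealing between cycles. In each cycle, clusters annealed to 100 nM quencher-labelled ATP aptamer were imaged in selection buffer, then after 15 min with 500 uM ATP at 22 °C. Per cluster, the fluorescence ratio is summed target-cycle over summed buffer-cycle Cy3 intensity, averaged per switch-domain sequence. Only clusters within 100-1000 RFU were kept.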
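Further: ATP exposure 15 min at 22 °C before imaging.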

In order of rising switch fluorescence ratio:
1. ATTTTGCTTT  0.965 ± 0.021
2. CTGTGGCCGG  0.967 ± 0.017
3. GGGTGGGCTC  0.971 ± 0.026
4. TGGGGGATG  0.971 ± 0.018
5. GCTGACTTGG  0.9714 ± 0.0081
6. GGTATGGAGC  0.971 ± 0.039
7. GAGGGACTGT  0.972 ± 0.026
8. ATTTCGAGTT  0.972 ± 0.014
9. TAAGATCGGC  0.974 ± 0.017
10. ATATTTGCGT  0.974 ± 0.021
11. AACTAGAGAC  0.975 ± 0.01
12. TTGAAAAAGC  0.975 ± 0.015
13. AATTCATAGT  0.978 ± 0.018
14. CACTCGAGTC  0.978 ± 0.011
15. CGGTAGGGTT  0.978 ± 0.022
16. GCAGTTTGTT  0.978 ± 0.019
17. TGAGGTTCGA  0.98 ± 0.03
18. ATGTGTTGTG  0.98 ± 0.021
19. GTGGGGTTGG  0.981 ± 0.021
20. GCGGGAATTG  0.981 ± 0.023
21. GGTGAAGGAT  0.982 ± 0.026
22. CTGGTTTTAT  0.9823 ± 0.009
23. ACGTGTTCAT  0.983 ± 0.018
24. ATTGAGGGTT  0.985 ± 0.019
25. AGGGTTGCAT  0.9863 ± 0.0025
26. GCTTAAAAAT  0.986 ± 0.095
27. TTGGCGTTGG  0.987 ± 0.026
28. ATAGTGCTTG  0.988 ± 0.046
29. TGAATGTTGG  0.988 ± 0.025
30. AGTGGGGTCA  0.989 ± 0.021
31. TTAACTGCTT  0.9894 ± 0.0088
32. AAGTGCAGGG  0.9896 ± 0.0057
33. TTTAGGGGGT  0.991 ± 0.023
34. GTTAGTCAAA  0.991 ± 0.01
35. TATGATAGGT  0.9914 ± 0.0013
36. GGGGTATTAG  0.991 ± 0.03
37. TGGTGGCTTG  0.991 ± 0.022
38. GATGGGTAAA  0.992 ± 0.029
39. TGGCCTTATT  0.992 ± 0.011
40. TGAAAAGTCG  0.99334 ± 0.00072
41. ACATGTTGTT  0.993 ± 0.024
42. AGTGGTGTGG  0.993 ± 0.044
43. CGGCTAGTCT  0.993 ± 0.13
44. AAAAGGGCGT  0.9944 ± 0.0066
45. ATTAGTAGAA  0.995 ± 0.016
46. ACTGTTTGGA  0.995 ± 0.0037
47. CAAGGTGGTC  0.995 ± 0.029
48. GGTATTGGCA  0.996 ± 0.022
49. CGCCAGATTT  0.9963 ± 0.0072
50. TCTGAAAGTC  0.9963 ± 0.0057
51. TTCGCGGGCT  0.996 ± 0.028
52. GATACCCATA  0.996 ± 0.016
53. TGGTTACAAA  0.997 ± 0.015
54. CTATTTTTAG  0.9968 ± 0.0021
55. GAGGATTTCA  0.99698 ± 0.00049
56. GTAAAATTGG  0.998 ± 0.025
57. TTGTGGGGGT  0.998 ± 0.02
58. GGGGTAAGCT  0.998 ± 0.023
59. TGGATGAATT  0.9981 ± 0.0045
60. ATTGTTACGG  0.998 ± 0.024
61. CAGGAGACTA  0.9979 ± 0.0094
62. GGGTATTGTA  0.999 ± 0.02
63. TTTCGGGCGG  0.999 ± 0.038
64. ATTCGAATGT  0.9994 ± 0.0013
65. GTTGGGGGTA  0.999 ± 0.028
66. TTGCTTGTAT  0.9992 ± 0.0098
67. GGCATTTTTT  1 ± 0.031
68. GATTCCCTAT  0.99995 ± 0.00076
69. AACGCATGTG  1 ± 0.039
70. GTGGTGGGGA  1 ± 0.024
71. ATGGTTACGG  1 ± 0.035
72. AAAAGAATAT  1 ± 0.019
73. GCTTATGGGA  1 ± 0.039
74. ATGGTCTGCG  1 ± 0.018
75. CAGGAAGGGG  1 ± 0.032
76. GGGAGGGGCG  1 ± 0.023
77. GGTACAGAAT  0.9997 ± 0.0012
78. ATTAAAAGGT  1 ± 0.026
79. GATAGGAGGA  1 ± 0.027
80. CGTTCTGTTT  1 ± 0.029
81. TGCATAGGGA  1.01 ± 0.035
82. GAAGGTGATC  1.01 ± 0.012
83. AGGGTTGGGT  1.01 ± 0.03
84. GCAAGTGTTC  1.01 ± 0.018
85. AGGGTCAGGG  1.01 ± 0.04
86. TGATAGTTGA  1.005 ± 0.0026
87. TTTTGTTAGC  1.01 ± 0.03
88. GGGGGGAGAA  1.01 ± 0.039
89. AAAATTAAGC  1.01 ± 0.051
90. GATTTGGAAG  1.01 ± 0.024
91. TTTTTTCGGT  1.01 ± 0.051
92. GGTGGAGTCG  1.009 ± 0.0085
93. GGGGCACGGC  1.01 ± 0.03
94. AGGCTAGCGG  1.01 ± 0.019
95. GGGGGGAACA  1.01 ± 0.029
96. AGAAGAGCTT  1.011 ± 0.0024
97. TGTCGTGACA  1.006 ± 0.0038
98. CGCTGACGGA  1.01 ± 0.053
99. CGGCTTAAGG  1.01 ± 0.019
100. CTCGAGAAGA  1.01 ± 0.022
101. GGAACCTTGG  1.023 ± 0.0094
102. TCTAAGGATT  1.02 ± 0.022
103. CTCTTAGGAT  1.02 ± 0.023
104. CTGGGTTGTT  1.0204 ± 0.00077
105. GTTTTTAACG  1.02 ± 0.05
106. AAAGGCCGT  1.016 ± 0.0077
107. TGATTGGCTG  1.02 ± 0.045
108. GGTTAAGAGG  1.02 ± 0.041
109. GGGGGGCGAC  1.02 ± 0.019
110. CGGGGTTTGA  1.02 ± 0.028
111. TGTTGACTGA  1.02 ± 0.023
112. GGCGATCGCG  1.02 ± 0.04
113. GATTTTTCAG  1.019 ± 0.006
114. ATGCGATGGC  1.02 ± 0.0072
115. AAGTCATGGA  1.02 ± 0.027
116. AAGGCTGGTG  1.02 ± 0.015
117. CGGGGCGCGC  1.02 ± 0.044
118. GCGCCCATCT  1.02 ± 0.017
119. TACTTTGCTC  1.03 ± 0.016
120. GGTGGACACT  1.03 ± 0.024
121. AAATATAAGC  1.03 ± 0.044
122. ACATGATTGC  1.029 ± 0.0054
123. CGTGTGGTGT  1.03 ± 0.04
124. GGATAGGGGC  1.03 ± 0.054
125. TTTCCAGGGA  1.034 ± 0.0029
126. AAACGTTAGC  1.03 ± 0.052
127. TTAGCCCATG  1.03 ± 0.029
128. AGTGGGGGTG  1.03 ± 0.043
129. GCCCATTTCT  1.03 ± 0.039
130. TGGGTGGGTG  1.04 ± 0.053
131. ATGGCCGGTT  1.04 ± 0.013
132. TTATGGTAAC  1.04 ± 0.018
133. TATGATAGCC  1.04 ± 0.037
134. TCTGTGTACG  1.04 ± 0.047
135. TCTTTGTTAC  1.05 ± 0.022
136. TGTGTTGCCT  1.05 ± 0.015
137. TTTCGGGTGC  1.05 ± 0.056
138. TGTTCGGGTG  1.05 ± 0.022
139. TTGGGCAACG  1.06 ± 0.022
140. GCATCTAAGC  1.06 ± 0.043
141. GGTGTGGTGA  1.06 ± 0.049
142. TGCTCCTTAG  1.07 ± 0.03
143. ACTGGGGGTG  1.07 ± 0.086
144. ACTCTGGTAA  1.065 ± 0.0032
145. TATACGAAGA  1.08 ± 0.045
146. ACGACTAGGT  1.102 ± 0.008
147. TCAGGGGGGT  1.11 ± 0.3
148. TAAATAGAAT  1.11 ± 0.1
149. CTGTGCGCCA  1.122 ± 0.0038
150. GCCGCACGGA  1.13 ± 0.045
151. AGGTGTAACA  1.15 ± 0.2
152. GAACCTGGAT  1.16 ± 0.038
153. CGTCATATGC  1.29 ± 0.073
154. CAGCTAGGTG  1.54 ± 0.029
155. CTGGACCTTC  1.66 ± 0.043
156. GGCGATACTA  1.92 ± 0.11
157. CCGCTATTGT  2.77 ± 0.4
